In US20200256877A1, “Microbiota Sequence Variants Of Tumor-Related Antigenic Epitopes” (ENTEROME S.A., priority 2017, published 2020):

Legend:
HLA-A*0201 = target: T1, HLA-A*0201 (Homo sapiens, UniProt P04439, D140Y/D185E/D98H/E176V/E277Q/G131W/G231S/I119V/I121R/I166T/I218V/L300P/L318F/N151K/N90K/P208A/P217A/Q86G/Q94H/R138H/R169H/T345S); assay: In vitro affinity of peptides to HLA-A*0201 on T2 cell line (FACS, anti-HLA-A2 labeling); assay type: cell-based; conditions: T2 cells; for Binding to HLA-A*0201 (in words): in vitro; for Mean fluorescence intensity: 16 hours
T1 construct: human tumoral cell T2 which expresses the HLA-A*0201 molecule; endogenous in cells; host or cells: T2 cells (human, TAP1/2 negative)
Excerpt: A method for in vitro testing is well-known to the skilled person. For example, the skilled person may use the experimental protocol as validated for peptides presented by HLA-A*0201 in Tourdot et al., A general strategy to enhance immunogenicity of low-affinity HLA-A2.1-associated peptides: implication in the identification of cryptic tumor epitopes. Eur J Immunol. 2000 December; 30(12):3411-21. In this context, a reference peptide, such as HIV pol 589-597, may be additionally used in the test. This enables calculation of the in vitro affinity relative to the binding observed with the reference peptide, e.g. by the following equation:
Relative affinity=concentration of each peptide inducing 20% of expression of HLA-A*0201/concentration of the reference peptide inducing 20% of expression of HLA-A*0201
(where 100% is the level of HLA-A*0201 expression detected with the reference peptide, e.g. HIV pol 589-597, for example used at a 100 μM concentration).
The experimental protocol is similar to the one that was validated for peptides presented by the HLA-A*0201 (Tourdot et al., A general strategy to enhance immunogenicity of low-affinity HLA-A2.1-associated peptides: implication in the identification of cryptic tumor epitopes. Eur J Immunol. 2000 December; 30(12):3411-21). Affinity measurement of the peptides is achieved with the human tumoral cell T2 which expresses the HLA-A*0201 molecule, but which is TAP1/2 negative and incapable of presenting endogenous peptides.
T2 cells (2.10^5 cells per well) were incubated with decreasing concentrations of peptides from 100 μM to 0.1 μM in a AIMV medium supplemented with 100 ng/μl of human β2m at 37° C. for 16 hours. Cells were then washed two times and marked with the anti-HLA-A2 antibody coupled to PE (clone BB7.2, BD Pharmagen).
The analysis was performed by FACS (Guava Easy Cyte). For each peptide concentration, the geometric mean of the labeling associated with the peptide of interest was subtracted from background noise and reported as a percentage of the geometric mean of the […] labeling obtained for the reference peptide HIV pol 589-597 at a concentration of 100 μM. The relative affinity is then determined as follows:
relative affinity=concentration of each peptide inducing 20% of expression of HLA-A*0201/concentration of the reference peptide inducing 20% of expression of HLA-A*0201.
The experimental protocol, materials and methods correspond to those outlined in Example 4, with the only difference that the above mentioned antigenic peptides were used.
T2 cells (2.10^5 cells per well) were incubated with decreasing concentrations of peptides from 100 μM to 0.1 μM in a AIMV medium supplemented with 100 ng/μl of human β2 m at 37° C. for 16 hours. Cells were then washed two times and marked with the anti-HLA-A2 antibody coupled to PE (clone BB7.2, BD Pharmagen).

[1] = tested on: splenocytes (IFNγ secretion); assay: ELISPOT-IFNγ on splenocytes of HHD DR3 and HHD DR1 mice vaccinated with IL13RA2-BL (Example 15); assay type: in vivo, mouse
Method: Mice were immunized with a specific vaccination peptide (vacc-pAg) combined to a common helper peptide (h-pAg).
The peptides were provided as follows: • vacc-pAg: IL13RA2-BL; all produced and provided at a 4 mg/ml (4 mM) concentration; • h-pAg: HHD-DR3 peptide (SEQ ID NO: 32); for immunization of β/A2/DR3 HHDDR3 mice provided at a 4 mg/ml (4 mM) concentration • h-pAg: UCP2 peptide (SEQ ID NO: 159); for immunization of β/A2/DR1 HHDDR1 mice provided at a 4 mg/ml (4 mM) concentration
The animals were immunized on day 0 (d0) with a prime injection, and on d14 with a boost injection. Each mouse was injected s.c. at tail base with 100 μL of an oil-based emulsion that contained: • 100 μg of vacc-pAg (25 μL of 4 mg/mL stock per mouse); • 150 μg of h-pAg (15 μL of 10 mg/mL stock per mouse); • 10 μL of PBS to reach a total volume of 50 μL (per mouse); • Incomplete Freund's Adjuvant (IFA) added at 1:1 (v:v) ratio (50 μL per mouse).
Seven days after the boost injection (i.e. on d21), the animals were euthanized and the spleen was harvested. Splenocytes were prepared by mechanical disruption of the organ followed by 70 μm-filtering and Ficoll density gradient purification.
The splenocytes were immediately used in an ELISPOT-IFNγ assay (Table 21). […]
(§1) Spots were counted on a Grand ImmunoSpot® S6 Ultimate UV Image Analyzer interfaced to the ImmunoSpot 5.4 software (CTL-Europe). […]

[2] = tested on: splenocytes (IFNγ secretion); assay: ELISPOT-IFNγ on splenocytes of β/A2/DR3 mice vaccinated with FOXM1-B2 (Example 12); assay type: in vivo, mouse
Method: Briefly, 15 β/A2/DR3 mice were immunized with a specific vaccination peptide (vacc-pAg) combined to a common helper peptide (h-pAg) (as outlined in Table 14 below). The vacc-pAg were compared in couples (group 1 vs. group 2). Thereby, both native and optimized versions of a single peptide were compared in each wave.
The animals were immunized on day 0 (d0) with a prime injection, and on d14 with a boost injection. Each mouse was injected s.c. at tail base with 100 μL of an oil-based emulsion that contained:
100 μg of vacc-pAg (25 μL of 4 mg/mL stock per mouse);
150 μg of h-pAg (15 μL of 10 mg/mL stock per mouse);
10 μL of PBS to reach a total volume of 50 μL (per mouse);
Incomplete Freund's Adjuvant (IFA) added at 1:1 (v:v) ratio (50 μL per mouse).
Seven days after the boost injection (i.e., on d21), the animals were euthanized and the spleen was harvested. Splenocytes were prepared by mechanical disruption of the organ followed by 70 μm-filtering and Ficoll density gradient purification.
The splenocytes were immediately used in an ELISPOT-IFNγ assay (Table 15). […]
as §1

FLPFGFILPV (Sequence variant) [SEQ ID NO: 139]
Binding to HLA-A*0201 (in words) (HLA-A*0201): strong binding affinity
% of maximum HIV pol 589-597 binding activity (HLA-A*0201; peptide at 6.25 μM): 43%
% of maximum HIV pol 589-597 binding activity (HLA-A*0201; peptide at 25 μM): 96%
% of maximum HIV pol 589-597 binding activity (HLA-A*0201; peptide at 100 μM): 69%
Response of splenocytes, ELISPOT-IFNγ (in words) ([1]; HHD DR3 and HHD DR1 mice immunized with IL13RA2-BL + helper + IFA, stimulation with IL13RA2-BL): strong response of splenocytes
Immune response against human peptide IL13RA2-HL (in words) ([1]; mice immunized with IL13RA2-BL, stimulation with human peptide): effective immune response

LMDLSTTEV (Sequence variant) [SEQ ID NO: 75]
Concentration inducing 20% of expression of the HLA-A*0201 (HLA-A*0201): 6.7 µM
Binding to HLA-A*0201 (in words) (HLA-A*0201): bind
Mean fluorescence intensity (HLA-A*0201; peptide at 3 μM): 12.7
Mean fluorescence intensity (HLA-A*0201; peptide at 25 μM): 98.2
Mean fluorescence intensity (HLA-A*0201; peptide at 100 μM): 105
T cell responses in the ELISPOT-IFNγ assay (in words) ([2]; β/A2/DR3 mice vaccinated with FOXM1-B2 (100 μg) + HHD-DR3 + IFA, d0 and d14): induced strong T cell responses
Activation of T cells after ex vivo re-stimulation with human FOXM1-H2 (in words) ([2]; β/A2/DR3 mice vaccinated with FOXM1-B2, re-stimulation FOXM1-H2 10 μM): efficient activation of T cells could be observed
